For the series, the system named is Escherichia coli TOP10. Nature of the series: shrunken log2 fold change of peptide-encoding DNA abundance (4.5 h post-induction vs induction); higher = less antimicrobial activity (less host growth inhibition). The settings on record: time post-induction: 4.5 h; library: site-saturation at positions 5, 18, 19, 20.
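Further: peptides expressed intracellularly from a pBAD plasmid library in pooled LB shake-flask culture, induced with 0.3% L-arabinose, DNA abundance read by NGS, three biological replicates, DESeq2 with apeglm shrinkage.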

As to RRIRDRPPRLPRPRPRPVAYPRP, the “shrunken log2 fold change” value is -0.0825.

RRIRKRPPRLPRPRPRPIIYPRP: the “shrunken log2 fold change” value stood at 0.0162.

In the case of RRIRHRPPRLPRPRPRPMNFPRP, the “shrunken log2 fold change” value was -0.0483.

Regarding RRIRGRPPRLPRPRPRPWCTPRP, the “shrunken log2 fold change” value was -0.0466.

For the sequence RRIRRRPPRLPRPRPRPGPHPRP, the “shrunken log2 fold change” value was 0.437.

For the sequence RRIRMRPPRLPRPRPRPIVDPRP, the “shrunken log2 fold change” value came out at 0.35.

For RRIRMRPPRLPRPRPRPRMMPRP, the “shrunken log2 fold change” value is 0.476.

With RRIRSRPPRLPRPRPRPTADPRP, the “shrunken log2 fold change” value worked out at 0.275.

With RRIRQRPPRLPRPRPRPQKHPRP, the “shrunken log2 fold change” value is -0.324.

For the sequence RRIRYRPPRLPRPRPRPLCPPRP, the “shrunken log2 fold change” value was -0.397.

Consider RRIRDRPPRLPRPRPRPCTPPRP, for which the “shrunken log2 fold change” value was -0.153.

In the case of RRIRTRPPRLPRPRPRPFRWPRP, the “shrunken log2 fold change” value is 0.24.

Turning to RRIRIRPPRLPRPRPRPSRFPRP, the “shrunken log2 fold change” value is -0.278.

Turning to RRIRVRPPRLPRPRPRPPEGPRP, the “shrunken log2 fold change” value stood at 0.582.

As to RRIRHRPPRLPRPRPRPWPAPRP, the “shrunken log2 fold change” value was 0.292.

Turning to RRIRFRPPRLPRPRPRPNERPRP, the “shrunken log2 fold change” value came out at 0.047.

Turning to RRIRDRPPRLPRPRPRPMCMPRP, the “shrunken log2 fold change” value worked out at 0.0237.

Turning to RRIRTRPPRLPRPRPRPCWQPRP, the “shrunken log2 fold change” value turned out to be 0.0902.

Regarding RRIRVRPPRLPRPRPRPTSCPRP, the “shrunken log2 fold change” value came to 0.961.

Take RRIRIRPPRLPRPRPRPHRYPRP: the “shrunken log2 fold change” value was -0.171.

For RRIRLRPPRLPRPRPRPLKKPRP, the “shrunken log2 fold change” value came to 0.162.

Regarding RRIRYRPPRLPRPRPRPIIKPRP, the “shrunken log2 fold change” value was -1.25.

Regarding RRIRDRPPRLPRPRPRPCPQPRP, the “shrunken log2 fold change” value is -0.132.

RRIRMRPPRLPRPRPRPISQPRP: the “shrunken log2 fold change” value was -0.29.

Take RRIRQRPPRLPRPRPRPVKKPRP: the “shrunken log2 fold change” value is -0.0152.

In the case of RRIRLRPPRLPRPRPRPKVHPRP, the “shrunken log2 fold change” value was -0.106.

Turning to RRIRYRPPRLPRPRPRPEWHPRP, the “shrunken log2 fold change” value is -0.186.

As to RRIRYRPPRLPRPRPRPFVFPRP, the “shrunken log2 fold change” value was -0.95.

RRIRDRPPRLPRPRPRPHWCPRP: the “shrunken log2 fold change” value is -0.116.

Turning to RRIRIRPPRLPRPRPRPQFNPRP, the “shrunken log2 fold change” value was -0.846.

With RRIRFRPPRLPRPRPRPTPWPRP, the “shrunken log2 fold change” value stood at 0.421.

Take RRIRPRPPRLPRPRPRPMDRPRP: the “shrunken log2 fold change” value is 0.247.

Turning to RRIRSRPPRLPRPRPRPENIPRP, the “shrunken log2 fold change” value is -0.278.

With RRIRNRPPRLPRPRPRPCKNPRP, the “shrunken log2 fold change” value was -0.0376.

In the case of RRIRRRPPRLPRPRPRPTRMPRP, the “shrunken log2 fold change” value turned out to be 1.08.

RRIRMRPPRLPRPRPRPNWLPRP: the “shrunken log2 fold change” value came out at 0.286.

As to RRIRYRPPRLPRPRPRPAFQPRP, the “shrunken log2 fold change” value is -0.00804.

RRIRWRPPRLPRPRPRPGEFPRP: the “shrunken log2 fold change” value turned out to be 0.17.

RRIRYRPPRLPRPRPRPVCHPRP: the “shrunken log2 fold change” value is -0.583.

With RRIRVRPPRLPRPRPRPLCAPRP, the “shrunken log2 fold change” value worked out at 0.17.

For the sequence RRIRWRPPRLPRPRPRPRMCPRP, the “shrunken log2 fold change” value was determined as 0.272.

Consider RRIRVRPPRLPRPRPRPERDPRP, for which the “shrunken log2 fold change” value is -0.15.

Take RRIRNRPPRLPRPRPRPRARPRP: the “shrunken log2 fold change” value turned out to be 0.856.

For the sequence RRIRCRPPRLPRPRPRPFYKPRP, the “shrunken log2 fold change” value is 0.979.

Turning to RRIRCRPPRLPRPRPRPRENPRP, the “shrunken log2 fold change” value turned out to be 0.439.

For RRIRCRPPRLPRPRPRPEHAPRP, the “shrunken log2 fold change” value stood at 0.999.

Turning to RRIRTRPPRLPRPRPRPPTQPRP, the “shrunken log2 fold change” value amounted to 0.282.

Turning to RRIRLRPPRLPRPRPRPSIVPRP, the “shrunken log2 fold change” value was -0.294.

On to RRIRKRPPRLPRPRPRPHTDPRP, for which the “shrunken log2 fold change” value is -0.0857.

As for RRIRLRPPRLPRPRPRPNNGPRP, the “shrunken log2 fold change” value stood at 0.0736.

Consider RRIRDRPPRLPRPRPRPVHLPRP, for which the “shrunken log2 fold change” value was -0.23.

Consider RRIRQRPPRLPRPRPRPAPHPRP, for which the “shrunken log2 fold change” value came to 0.343.

Consider RRIRYRPPRLPRPRPRPCCYPRP, for which the “shrunken log2 fold change” value was -0.363.

RRIRTRPPRLPRPRPRPYMIPRP: the “shrunken log2 fold change” value is -0.478.

For the sequence RRIRQRPPRLPRPRPRPHIPPRP, the “shrunken log2 fold change” value was -0.0245.

Regarding RRIRMRPPRLPRPRPRPYDDPRP, the “shrunken log2 fold change” value is -0.00329.

As to RRIRMRPPRLPRPRPRPKWGPRP, the “shrunken log2 fold change” value came out at 0.729.

For the sequence RRIRNRPPRLPRPRPRPKAHPRP, the “shrunken log2 fold change” value stood at 0.18.

In the case of RRIRPRPPRLPRPRPRPMTGPRP, the “shrunken log2 fold change” value is -0.239.

As for RRIRHRPPRLPRPRPRPSANPRP, the “shrunken log2 fold change” value was -0.228.

In the case of RRIRRRPPRLPRPRPRPTGNPRP, the “shrunken log2 fold change” value came out at 0.0381.

In the case of RRIRFRPPRLPRPRPRPAPCPRP, the “shrunken log2 fold change” value was 0.294.

In the case of RRIRCRPPRLPRPRPRPEFCPRP, the “shrunken log2 fold change” value was 0.0369.

Take RRIRTRPPRLPRPRPRPTSKPRP: the “shrunken log2 fold change” value is -0.343.

RRIRKRPPRLPRPRPRPMRYPRP: the “shrunken log2 fold change” value stood at 0.239.

As for RRIRWRPPRLPRPRPRPGRIPRP, the “shrunken log2 fold change” value is 0.298.

As to RRIRQRPPRLPRPRPRPIMTPRP, the “shrunken log2 fold change” value is -0.107.

Regarding RRIRLRPPRLPRPRPRPFWYPRP, the “shrunken log2 fold change” value was -0.0126.

As to RRIRGRPPRLPRPRPRPALDPRP, the “shrunken log2 fold change” value came out at 1.4.

Regarding RRIRRRPPRLPRPRPRPLPAPRP, the “shrunken log2 fold change” value was 0.599.

For RRIRRRPPRLPRPRPRPREIPRP, the “shrunken log2 fold change” value came to 0.479.

In the case of RRIRFRPPRLPRPRPRPELLPRP, the “shrunken log2 fold change” value came to 0.146.

On to RRIRNRPPRLPRPRPRPQQMPRP, for which the “shrunken log2 fold change” value was determined as 0.0512.

Regarding RRIRLRPPRLPRPRPRPREKPRP, the “shrunken log2 fold change” value was found to be 0.15.

Turning to RRIRGRPPRLPRPRPRPFPYPRP, the “shrunken log2 fold change” value is -0.334.

As to RRIRFRPPRLPRPRPRPHLEPRP, the “shrunken log2 fold change” value is -0.425.

As to RRIRNRPPRLPRPRPRPWHTPRP, the “shrunken log2 fold change” value is -0.0681.

On to RRIRRRPPRLPRPRPRPHFVPRP, for which the “shrunken log2 fold change” value was -0.103.

As to RRIRDRPPRLPRPRPRPSGYPRP, the “shrunken log2 fold change” value was 0.0153.

RRIRIRPPRLPRPRPRPLKKPRP: the “shrunken log2 fold change” value was -0.094.

For the sequence RRIRSRPPRLPRPRPRPANWPRP, the “shrunken log2 fold change” value came to 0.343.

Regarding RRIRQRPPRLPRPRPRPKQLPRP, the “shrunken log2 fold change” value was -0.156.

Consider RRIRVRPPRLPRPRPRPRIAPRP, for which the “shrunken log2 fold change” value was 0.0659.

With RRIRVRPPRLPRPRPRPRYDPRP, the “shrunken log2 fold change” value was -0.0252.

For RRIRCRPPRLPRPRPRPWVYPRP, the “shrunken log2 fold change” value is -0.0957.

Take RRIRSRPPRLPRPRPRPKYMPRP: the “shrunken log2 fold change” value is -0.677.

In the case of RRIRWRPPRLPRPRPRPPPKPRP, the “shrunken log2 fold change” value turned out to be 0.945.

For RRIRVRPPRLPRPRPRPLSEPRP, the “shrunken log2 fold change” value worked out at 0.0246.

As for RRIRNRPPRLPRPRPRPKHEPRP, the “shrunken log2 fold change” value is 0.13.

Take RRIRQRPPRLPRPRPRPRPHPRP: the “shrunken log2 fold change” value was 0.483.

Consider RRIRPRPPRLPRPRPRPVSHPRP, for which the “shrunken log2 fold change” value worked out at 0.208.

As for RRIRGRPPRLPRPRPRPVKIPRP, the “shrunken log2 fold change” value is 0.16.

As for RRIRHRPPRLPRPRPRPAYYPRP, the “shrunken log2 fold change” value is -0.624.

RRIRHRPPRLPRPRPRPSWMPRP: the “shrunken log2 fold change” value is -0.419.

In the case of RRIRMRPPRLPRPRPRPHRRPRP, the “shrunken log2 fold change” value was 0.0631.

Take RRIRHRPPRLPRPRPRPLIWPRP: the “shrunken log2 fold change” value is -0.538.

On to RRIRARPPRLPRPRPRPYGPPRP, for which the “shrunken log2 fold change” value is -0.264.

With RRIRPRPPRLPRPRPRPVTFPRP, the “shrunken log2 fold change” value was -0.186.

As to RRIRCRPPRLPRPRPRPKPGPRP, the “shrunken log2 fold change” value was 0.503.

For the sequence RRIRCRPPRLPRPRPRPPVIPRP, the “shrunken log2 fold change” value was -0.0627.

As to RRIRQRPPRLPRPRPRPVHNPRP, the “shrunken log2 fold change” value is -0.121.

Regarding RRIRWRPPRLPRPRPRPSWTPRP, the “shrunken log2 fold change” value is -0.0457.

Turning to RRIRMRPPRLPRPRPRPPWCPRP, the “shrunken log2 fold change” value amounted to 0.831.

Turning to RRIRKRPPRLPRPRPRPVWQPRP, the “shrunken log2 fold change” value came out at 0.184.

For RRIRYRPPRLPRPRPRPHLNPRP, the “shrunken log2 fold change” value is -1.15.

Regarding RRIRHRPPRLPRPRPRPLHTPRP, the “shrunken log2 fold change” value stood at 0.143.

As to RRIRMRPPRLPRPRPRPHITPRP, the “shrunken log2 fold change” value was -0.374.

Take RRIRCRPPRLPRPRPRPNTLPRP: the “shrunken log2 fold change” value was -0.535.

For the sequence RRIRQRPPRLPRPRPRPPCAPRP, the “shrunken log2 fold change” value was 0.293.

For the sequence RRIRERPPRLPRPRPRPQYQPRP, the “shrunken log2 fold change” value is -1.12.

In the case of RRIRSRPPRLPRPRPRPRWRPRP, the “shrunken log2 fold change” value stood at 0.375.

As to RRIRHRPPRLPRPRPRPGHQPRP, the “shrunken log2 fold change” value was -0.149.

Consider RRIRARPPRLPRPRPRPCMSPRP, for which the “shrunken log2 fold change” value came to 0.19.

For the sequence RRIRFRPPRLPRPRPRPGWFPRP, the “shrunken log2 fold change” value is 0.237.

Take RRIRYRPPRLPRPRPRPCGTPRP: the “shrunken log2 fold change” value is -0.193.

On to RRIRCRPPRLPRPRPRPVMQPRP, for which the “shrunken log2 fold change” value was -0.166.

As to RRIRQRPPRLPRPRPRPMWYPRP, the “shrunken log2 fold change” value was -0.298.

With RRIRWRPPRLPRPRPRPYTFPRP, the “shrunken log2 fold change” value amounted to 0.0563.

For the sequence RRIRTRPPRLPRPRPRPHQPPRP, the “shrunken log2 fold change” value was -0.0196.

As for RRIRNRPPRLPRPRPRPCREPRP, the “shrunken log2 fold change” value was -0.109.

For the sequence RRIRSRPPRLPRPRPRPAIRPRP, the “shrunken log2 fold change” value is -0.0385.

Turning to RRIRDRPPRLPRPRPRPTWPPRP, the “shrunken log2 fold change” value turned out to be 0.501.

Consider RRIRARPPRLPRPRPRPQHEPRP, for which the “shrunken log2 fold change” value came to 0.0966.

Turning to RRIRVRPPRLPRPRPRPQDLPRP, the “shrunken log2 fold change” value was -0.0193.

Take RRIRHRPPRLPRPRPRPLYNPRP: the “shrunken log2 fold change” value is -0.459.

For the origin of these results see the supplement of paper PMC9112550, “Optimization of the antimicrobial peptide Bac7 by deep mutational scanning” (BMC Biology, 2022).
